From patent US20240382605A1 (IONIS PHARMACEUTICALS, published 2024)
Starred links: 1 amine or outer side, 2 acyl side, 3 side chain; linkers in the order of their positions; H or OH if unused. Positions of bridges follow the written chain, without caps; N, C: chain ends. Non-standard residues stand in square brackets, D forms with d. TATB = O=C(C[*:1])N1CN(C(=O)C[*:2])CN(C(=O)C[*:3])C1; Lys(N3) = [N-]=[N+]=NCCCC[C@H](N)C(=O)O

B1: 1453015:1550983-BCY17873 (peptide)
peptide: CSPDAHLGCISYCEPWX
modifications: not fully specified; as printed CSPDAHLGCISYCEPW[K(N3)]: N-terminal acetyl; C-terminal amide; three Cys bound to TATB scaffold; [K(N3)] 6-azido lysine at 17 joined via BCN linker to sense strand 1550983 of the RNAi duplex 1453015:1550983
notes: nucleic acids; also called RNAi compound 1453015:1550983 conjugated to BCY17873
B2: 486178:1614438-BCY17873 (peptide)
peptide: CSPDAHLGCISYCEPWX
modifications: not fully specified; as printed CSPDAHLGCISYCEPW[K(N3)]: N-terminal acetyl; C-terminal amide; three Cys bound to TATB scaffold; [K(N3)] 6-azido lysine at 17 joined via BCN linker to oligonucleotide 1614438 of the duplex 486178:1614438
notes: nucleic acids; also called Compound No. 486178:1614438 conjugated to BCY17873
B3: 1590463-BCY17896 (peptide)
peptide: CPXDAYLGCXSYCX
modifications: not fully specified; as printed CP[HyP]DAYLGC[tBuGly]SYC[K(N3)]: N-terminal acetyl; C-terminal amide; three Cys bound to TATB scaffold; [HyP] 4-trans-hydroxy-L-proline at 3; [tBuGly] t-butyl glycine at 10; [K(N3)] 6-azido lysine at 14 joined via BCN linker to oligonucleotide 1590463
notes: also called Compound No. 1590463 conjugated to BCY17896
B4: 1590463-BCY17901 (peptide)
peptide: CPXDAYLGCXSYCEPWX
modifications: not fully specified; as printed CP[HyP]DAYLGC[tBuGly]SYCEPW[K(N3)]: N-terminal acetyl; C-terminal amide; three Cys bound to TATB scaffold; [HyP] 4-trans-hydroxy-L-proline at 3; [tBuGly] t-butyl glycine at 10; [K(N3)] 6-azido lysine at 17 joined via BCN linker to oligonucleotide 1590463
notes: also called Compound 1590463-BCY17901; Compound No. 1666846
B5: 1590463-BCY17905 (peptide)
peptide: Ac-CSPD[Lys(N3)]HLGCISYC-NH2
modifications: linker 1-9-13 via TATB; not fully specified (residue 5); printed as CSPD[K(N3)]HLGCISYC; also: azide of K(N3) in loop clicked via BCN linker to oligonucleotide 1590463
notes: also called Compound No. 1590463 conjugated to BCY17905
B6: 1590463-BCY17873 (peptide)
peptide: CSPDAHLGCISYCEPWX
modifications: not fully specified; as printed CSPDAHLGCISYCEPW[K(N3)]: N-terminal acetyl; C-terminal amide; three Cys bound to TATB scaffold; [K(N3)] 6-azido lysine at 17 joined via BCN linker to oligonucleotide 1590463
notes: also called Compound No. 1590463 conjugated to BCY17873
B7: 1609732-BCY17873 (peptide)
peptide: CSPDAHLGCISYCEPWX
modifications: not fully specified; as printed CSPDAHLGCISYCEPW[K(N3)]: N-terminal acetyl; C-terminal amide; three Cys bound to TATB scaffold; [K(N3)] 6-azido lysine at 17 joined via BCN linker to oligonucleotide 1609732
notes: also called Compound No. 1609732 conjugated to BCY17873
B8: 1590463-BCY17894 (peptide)
peptide: CSPDAHLGCISYCEXWX
modifications: not fully specified; as printed CSPDAHLGCISYCE[Pip]W[K(N3)]: N-terminal acetyl; C-terminal amide; three Cys bound to TATB scaffold; [Pip] pipecolic acid at 15; [K(N3)] 6-azido lysine at 17 joined via BCN linker to oligonucleotide 1590463
notes: also called Compound No. 1590463 conjugated to BCY17894
B9: 1590463-BCY17903 (peptide)
peptide: Ac-C[Lys(N3)]PDAHLGCISYC-NH2
modifications: linker 1-9-13 via TATB; not fully specified (residue 2); printed as C[K(N3)]PDAHLGCISYC; also: azide of K(N3) in loop clicked via BCN linker to oligonucleotide 1590463
notes: also called Compound No. 1590463 conjugated to BCY17903
B10: 1590463-BCY17892 (peptide)
peptide: CSPDAHLGCISYCEXWX
modifications: not fully specified; as printed CSPDAHLGCISYCE[Aze]W[K(N3)]: N-terminal acetyl; C-terminal amide; three Cys bound to TATB scaffold; [Aze] azetidine at 15; [K(N3)] 6-azido lysine at 17 joined via BCN linker to oligonucleotide 1590463
notes: also called Compound No. 1590463 conjugated to BCY17892
B11: 1590463-BCY17882 (peptide)
peptide: NXNCSPDAHLGCISYCX
modifications: not fully specified; as printed N[dY]NCSPDAHLGCISYC[K(N3)]: N-terminal acetyl; C-terminal amide; three Cys bound to TATB scaffold; [dY] D-tyrosine at 2; [K(N3)] 6-azido lysine at 17 joined via BCN linker to oligonucleotide 1590463
notes: also called Compound No. 1590463 conjugated to BCY17882
B12: 1590463-BCY17890 (peptide)
peptide: CSPDAHLGCISYCEXWX
modifications: not fully specified; as printed CSPDAHLGCISYCE[dP]W[K(N3)]: N-terminal acetyl; C-terminal amide; three Cys bound to TATB scaffold; [dP] D-proline at 15; [K(N3)] 6-azido lysine at 17 joined via BCN linker to oligonucleotide 1590463
notes: also called Compound No. 1590463 conjugated to BCY17890
B13: 1614439-BCY17906 (peptide)
peptide: CSPDAHLGCISYCX
modifications: not fully specified; as printed CSPDAHLGCISYC[K(N3)(PYA-Maleimide)]: N-terminal acetyl; C-terminal amide; three Cys bound to TATB scaffold; modified lysine [K(N3)(PYA-Maleimide)] at 14 joined to oligonucleotide 1614439 (5' 6-mercaptohexanol linker)
notes: the coupling chemistry of this pair is not spelled out; also called Compound No. 1614439 conjugated to BCY17906
B14: 1590463-BCY17904 (peptide)
peptide: Ac-CS[Lys(N3)]DAHLGCISYC-NH2
modifications: linker 1-9-13 via TATB; not fully specified (residue 3); printed as CS[K(N3)]DAHLGCISYC; also: azide of K(N3) in loop clicked via BCN linker to oligonucleotide 1590463
notes: also called Compound No. 1590463 conjugated to BCY17904
B15: 1602000-BCY17873 (peptide)
peptide: CSPDAHLGCISYCEPWX
modifications: as printed CSPDAHLGCISYCEPW[K(N3)]: N-terminal acetyl; C-terminal amide; three Cys bound to TATB scaffold; [K(N3)] 6-azido lysine at 17 joined to oligonucleotide 1602000 ([PEG1alkyne] linker)
notes: also called Compound No. 1602000 conjugated to BCY17873
B16: 1590463-BCY17899 (peptide)
peptide: NWNCPXDAYLGCXSYCX
modifications: not fully specified; as printed NWNCP[HyP]DAYLGC[tBuGly]SYC[K(N3)]: N-terminal acetyl; C-terminal amide; three Cys bound to TATB scaffold; [HyP] 4-trans-hydroxy-L-proline at 6; [tBuGly] t-butyl glycine at 13; [K(N3)] 6-azido lysine at 17 joined via BCN linker to oligonucleotide 1590463
notes: also called Compound No. 1590463 conjugated to BCY17899
B17: 1591118-BCY17901 (peptide)
peptide: CPXDAYLGCXSYCEPWX
modifications: as printed CP[HyP]DAYLGC[tBuGly]SYCEPW[K(N3)]: N-terminal acetyl; C-terminal amide; three Cys bound to TATB scaffold; [HyP] 4-trans-hydroxy-L-proline at 3; [tBuGly] t-butyl glycine at 10; [K(N3)] 6-azido lysine at 17 joined via BCN linker to oligonucleotide 1591118
notes: also called Compound No. 1591118 conjugated to BCY17901

Target: T1, hCD71-Nluc fusion protein (human, UniProt P02786 1-760)
T1 construct: whole, on cells; Used as crude membrane fractions of HEK293 cells stably expressing hCD71-Nluc; also called human transferrin receptor, CD71, fused to NanoLuc; not shown: NanoLuc (ProMega) luciferase joined through its N-terminal Val
T1 sequence (P02786 other isoform, or with tags, fused parts or gaps): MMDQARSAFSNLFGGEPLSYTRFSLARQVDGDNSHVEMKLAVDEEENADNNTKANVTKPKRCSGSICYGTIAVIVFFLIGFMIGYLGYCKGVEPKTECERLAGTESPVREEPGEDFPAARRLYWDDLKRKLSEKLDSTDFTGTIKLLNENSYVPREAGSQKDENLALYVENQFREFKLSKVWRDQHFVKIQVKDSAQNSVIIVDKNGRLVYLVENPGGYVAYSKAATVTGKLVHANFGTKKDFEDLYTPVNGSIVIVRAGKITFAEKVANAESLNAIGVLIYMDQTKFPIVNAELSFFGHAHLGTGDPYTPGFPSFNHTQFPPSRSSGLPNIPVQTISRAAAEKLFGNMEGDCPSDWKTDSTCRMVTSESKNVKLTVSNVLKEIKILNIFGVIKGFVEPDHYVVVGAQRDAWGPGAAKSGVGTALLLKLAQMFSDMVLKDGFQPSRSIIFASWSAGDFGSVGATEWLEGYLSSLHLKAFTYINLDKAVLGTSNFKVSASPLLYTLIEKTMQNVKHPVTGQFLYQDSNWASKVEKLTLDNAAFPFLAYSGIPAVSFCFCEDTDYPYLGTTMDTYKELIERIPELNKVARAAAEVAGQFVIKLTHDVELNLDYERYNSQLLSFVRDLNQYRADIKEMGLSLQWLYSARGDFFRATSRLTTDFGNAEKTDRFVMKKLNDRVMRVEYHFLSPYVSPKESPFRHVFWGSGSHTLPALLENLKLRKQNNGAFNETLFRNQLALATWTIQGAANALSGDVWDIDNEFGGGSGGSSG
Assay: nanoBRET competition, tracer BCY17871-1598988 60 nM, HEK293 hCD71-Nluc membranes

Row | Ki | Binder
1 | 9 nM | B1

Target: T1, hCD71-Nluc fusion protein
Assay: as above
Remark: another data set of the same source
Experimental: (§1) The mixtures were incubated for 3 hours at room temperature to reach equilibrium. To initiate BRET, 12.4 μL of 100 μM of the Nluc substrate furimazine was added to each well, and the mixtures were incubated for 5-30 minutes. The assay plate was read on a Promega GlowMax Discover plate reader at wavelengths of 450 nm and 600 nm, and the ratio of emissions at wavelengths 450/600 were used to yield % BRET efficiency. Data was subjected to non-linear regression, then fitted to a single site binding hyperbolic function.
(§2) In order to evaluate modified oligonucleotides conjugated to CD71 bicycle ligands and RNAi compounds conjugated to CD71 bicycle ligands, the assay was modified as follows. […] Modified oligonucleotides were conjugated to the bicycle ligands through a SPAAC reaction These were then added at a range of concentrations in triplicate assays points, and the mixtures were incubated for 3 hours at room temperature. BRET was initiated with the addition of furimazine and the assay was completed as described above.

Row | Ki | Binder
2 | 95 nM | B2

Target: T1, hCD71-Nluc fusion protein
Assay: as above
Remark: another data set of the same source
Experimental: as §1, §2

Row | Ki | Binder
3 | 1 nM | B3
4 | 0.3 nM | B4
5 | 16 nM | B5
6 | 1 nM | B6
7 | 1 nM | B7
8 | 1 nM | B8
9 | 24 nM | B9
10 | 1 nM | B10
11 | 3 nM | B11
12 | 2 nM | B12
13 | 2 nM | B13
14 | 5 nM | B14
15 | 1 nM | B15
16 | 1 nM | B16

Target: T1, hCD71-Nluc fusion protein
Assay: as above
Remark: another data set of the same source

Row | Ki | Binder
17 | 1.4 nM | B17

Target: T1, hCD71-Nluc fusion protein
Assay: as above
Remark: another data set of the same source

Row | Ki | Binder
18 | 38 nM | B1

Target: T1, hCD71-Nluc fusion protein
Assay: as above
Remark: another data set of the same source
Experimental: as §1, §2

Row | Ki | Binder
19 | 6 nM | B6

Target: T1, hCD71-Nluc fusion protein
Assay: as above
Remark: another data set of the same source
Experimental: as §1, §2

Row | Ki | Binder
20 | 2 nM | B3
21 | 1 nM | B4
22 | 148 nM | B5
23 | 7 nM | B6
24 | 8 nM | B8
25 | 125 nM | B9
26 | 11 nM | B10
27 | 23 nM | B11
28 | 17 nM | B12
29 | 31 nM | B14
30 | 4 nM | B16

Target: T2, CD71 (Homo sapiens (Human), UniProt P02786 89-760)
T2 construct: also called transferrin receptor; TfR1
T2 sequence (P02786 89-760 limits assumed, form in doubt): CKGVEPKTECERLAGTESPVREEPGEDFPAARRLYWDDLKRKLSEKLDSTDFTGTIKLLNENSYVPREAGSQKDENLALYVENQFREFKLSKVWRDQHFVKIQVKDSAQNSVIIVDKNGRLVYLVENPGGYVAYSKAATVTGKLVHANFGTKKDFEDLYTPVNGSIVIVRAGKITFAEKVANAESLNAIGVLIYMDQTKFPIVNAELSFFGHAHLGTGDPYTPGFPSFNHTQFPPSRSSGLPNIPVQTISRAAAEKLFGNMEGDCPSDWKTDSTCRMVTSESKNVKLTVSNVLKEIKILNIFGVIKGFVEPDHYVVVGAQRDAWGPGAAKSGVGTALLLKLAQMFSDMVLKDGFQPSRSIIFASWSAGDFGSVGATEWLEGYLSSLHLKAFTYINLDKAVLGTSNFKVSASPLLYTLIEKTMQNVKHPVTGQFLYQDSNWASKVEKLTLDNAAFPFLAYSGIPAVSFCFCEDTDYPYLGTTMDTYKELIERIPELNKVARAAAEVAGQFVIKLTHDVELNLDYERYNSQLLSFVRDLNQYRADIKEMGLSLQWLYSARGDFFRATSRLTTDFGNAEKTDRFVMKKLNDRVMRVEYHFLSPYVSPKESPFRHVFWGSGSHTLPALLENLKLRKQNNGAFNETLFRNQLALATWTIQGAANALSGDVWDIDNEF
Assay: SPR Biacore X100, conjugate duplexed to biotin-DNA on streptavidin chip, CD71 injected 6.25-100 nM, 1:1 fit
Experimental: The binding affinity for each of the following modified oligonucleotides conjugated to CD71 bicycle ligands was tested on a Biacore X100 surface plasmon resonance (SPR) instrument. 200 units of modified oligonucleotides conjugated to CD71 bicycle ligand were immobilized on a streptavidin chip by injecting a 20 nM solution of 5′-Biotin-labeled DNA (5′-Biotin-TEG-DNA complement to modified oligonucleotide) duplexed with modified oligonucleotides conjugated to CD71 bicycle ligand in HBS—P (10 mM HEPES, pH 7.4, 150 mM NaCl, 0.0005% Surfactant P20) running buffer. […] Kinetic and equilibrium binding analysis was performed using Biacore X100 Evaluation Software, applying 1:1 binding fit.

Row | Kd | Binder
31 | 12 nM | B6

Target: T1, hCD71-Nluc fusion protein
Assay: nanoBRET competition, tracer BCY17871-1598988 60 nM, HEK293 hCD71-Nluc membranes
Remark: another data set of the same source
Experimental: as §1, §2

Row | Ki | Binder
32 | 2 nM | B3
33 | 1 nM | B4
34 | 10 nM | B6
35 | 10 nM | B7
36 | 10 nM | B8
37 | 11 nM | B10
38 | 55 nM | B11
39 | 20 nM | B12
40 | 23 nM | B13
41 | 60 nM | B14
42 | 36 nM | B15
43 | 4 nM | B16

Target: T1, hCD71-Nluc fusion protein
Assay: as above
Remark: another data set of the same source
Experimental: as §1, §2

Row | Ki | Binder
44 | 4 nM | B6
